Test: yeast display, Sf9 membrane polyspecificity reagent, FACS + sequencing; frameworks hold sequencing errors
Method in brief: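 Synthetic nanobody libraries on Saccharomyces cerevisiae BJ5465 were galactose-induced for 36–48 hours, stained 1 hour at 4 °C with 10% biotinylated, detergent-solubilized Sf9 membrane reagent and enriched on streptavidin microbeads. FACS then separated cells into low and high (top ~1%) gates by anti-HA (expression) and streptavidin (reagent binding) fluorescence. Genes were colony-PCR amplified, MiSeq 2 × 250 sequenced and CDR-length filtered. A clone's polyreactivity label is that of its gate of origin.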

Sequence | polyreactivity (PSR sort gate)
QVQLVESGGGLVKAGGRLRLSSAASGSIFASYSIGWYRQAPWKERELVAAITVRGGRTYYADSVKGRFTISRDNAKNTVYLQMNSLKPEDTAVYYCAAVGKNRSWYDYWGQGTQVTVSS | high polyreactivity
QVQLVESGGGLVQAGGSLRLSCAASGRTFFTYAMGWYRQAPGKERELVAAITYRGGGTYYADSVKGRFTISRDNAKNTVYLQMNSLKPEDTAVYYCAAEYWVGVYLYDYWGQGTQVTVSS | high polyreactivity
QVQLVESGGGLVQAGASLRLSCAASGRIFSKNAMGWYRQAPGKERELVAAISANTGSTYYADSVKGRFTISRDNAKNTVYLQMNILKPEDTAVYYCATTWTIRRYRYTPRLVDYWGQGTQVTVSS | low polyreactivity
QVQLVESGGGLVQAGGSLRLSCAASGSTIYLYAMGWSRPAPGKERVLVAAIRGRGGRTYYADSVKGRFTISSDNAKNTVYLKMNSLKPEDTAVYYCNADVYAYYRATTRFDYWGQGTQVTVSS | high polyreactivity
QVKLVESGGGVVQAGGSLSLSCAASGRIFGGNAMGWYRQAPGKERELVAAISRTGGSTYYADSVKGRFTISRDIAKNTVYLQMNSLKPEDTAVNYCNAVYRYAHPMEYWGQGTQVTVSS | high polyreactivity
QVQLVESGGGLVQAGGSLRLSCAASGSTFRKYAMGWYSQAPGKERELVAAIRRNGVSTYYADSVKGRFTISLDNAKNTVYLQMNSLKPEDTAVYYCNARTKPDYDWGQGTQVTVSS | high polyreactivity
QVQLVESGGCLVQAGGSLRLSCAASGRIFGLYAMGWYRQAPGKEREFVAAISSSGSDTYYADSVKGRFTISRDNAKNTVYLQINSLKPDYTAVYYCAKRRLYLCFDYNSSAYEYGYWGQGTQVTVSS | low polyreactivity
QVQLVESWGGLVQAGGSLRLSCAASGFTFTRNAMGWYRQAPGKERELVAAISKSGGRTYYADSVKGRFTISRDNAKYNVYLQMNSLKPEDTAVYYCAVVPRPFGLGSDYDYWGQGTQVTVSS | high polyreactivity
QVHLVESGGGLVQAGGSLRLSCAASGRIIRYNAMGWYRQAPGKERELDAAITRSGGSTYYADSVKGRFTISRDNAKNTVYLQMNSLKPEDTGVYYCAKVQNGQWSTSGVPGDYQYNYWGQATQVTVSS | high polyreactivity
QLQLEESGGGLVQAGGSLRLSCAAYGNILGYNAMGWYRQAPGKERELVAAISDNADSTYYADSVKGRFTISRDNAKNTVYLQMNSLKPEDPAVYYCAADWVLRTWLFWYTKYDYWGQGTQVTVSS | low polyreactivity
QVQLVESGGGLVQAGGSLRLICAASGYTFGHYVMGWYRQAPGKERELGAAISRGGGSTSYADSVKGRFTISRDNAKNTVYLQMNSLKPEDTAVYYCAKKSTYFKWSRMYWGQGTQVTVSS | high polyreactivity
QVQLVESGGGLVQAGGSLRLSCAASGLIFKVYAMGWYRQAPGKERELVAAITYSGGSTDYADSVKGRFTISRDNAKNTVYLQMNSLKPEDTAVYYCNVEKVGHVNSYGYDYWGQGTQVTVSS | low polyreactivity
QVQIVESGGVIVQAGGSLRLSCAASGRIISYYTMGWYRQAPGKERELVAAISVSSGRTYYADSVKGRFTISRDNAKNTVYLQMNSLKPEDTAVYYCDAKYLARSAYDYWGQGTQVTVSS | high polyreactivity
QVQLVESGGGLVQAGGSLRLSCAASGSLFNLYAMGWYIQAPGKERELVAAISWSGGRTFYADSVKGRFTISRDNAKNTVFLQMNSLKPEDTAVYDCAARSSRTTRQGYDYWGQGTQVNVSS | high polyreactivity
QGQPVESGGGLVQAGGSLRLSCAASGLIFRWYAMGWNRQAPVQEREVVAAISWSGASTYYADSVKGRFTISRDTPKNTVYLQMNSLKPDDTAVYYCAADYGYYGAGSYFDRGDYWGQGTQVTVSS | high polyreactivity
QFQLVESVRGLVQAGVSLRLSCAASGSTFNFYAMGLYRQPPGKERELVAAIRQSSGRTYYADSVKGRFTISRDNGNYTVYLQMNSLKPEDTAVYYCAAVRYNFNFKMYYWGQGTQVTVSS | high polyreactivity
QVQLVESGGGLVQAGGSLRLSCAASGGIIGHYDMGWYRQAPGKERELVAAIIGGGSTNYADSVKGRFTISRDNAKNTVYLQMNSLKPEDTAVYYCNVAHGTQGWWGRNDYWGQGTQVTVSS | low polyreactivity
QVQLVESGGGLVQAGGSLRLSCAASGSTFRQNAMGWYRQAPGKERELVAAISGTAGSTYYADSVKGRFTISRDNAKNTVYLQMNSLKPEDTAVYYCAKRKITKYGYGYWGQGTQVTVSS | high polyreactivity
HVQLVESGGGLVQAGGSLRLSCAASGSIFIGNAMGWYRQAPGKERELVAAISKSDGRTYYADSVKGRFTISRDNAKNTVYLQMNSLKPEDTAVYFCAADAYWEPKVGFSLFDYWGQGTQVTVSS | low polyreactivity
QVQLVESGGGLVQAGGSLRLSCAASGFIFTWYTMGWYRQAPGKERELVAAITSGGNTNYADSVKGRFTISRDNAKNTVYLQMNSLKPEDTAVYYCARGYLASRLKFAKYDYWGQGTQVTVSS | high polyreactivity
QVQLVESGGGLVQAGGSLRLSCAASGFTFNFNAMGCYIQAPGKERELLAAIRYRGGSTNYADSVKGSFTISRDNAKNTVYVMMNSLKPEDTAVYYCNVYYYRTYSHVLPGYEYWGQGTQVPVSS | high polyreactivity
QVQLVESGGGLVQAGVSLLLSCAASGSTFGYNAMVCYRQAPGKERELVAAITSSGSTTYYADSVKGRFTISRDNAKNSVYLQLNSLKREDTAVYYCNAPAYYLHYGLYARYDYWGQGTQVTVSS | low polyreactivity

Sequence | polyreactivity (PSR sort gate)
QVQLVESGGGLVQAGGSLRLSCAASGITFARYAMGLYRQAPGKERELVAAISWSGGSTYYADSVKGRFTISRDNAKNTVYLQMNSLKPEDTAVYYCAAGGRVRRNKFDYWGQGTQVTVSS | high polyreactivity
QVQLVESGGGLVQAGGSLRLSCAASGSIFHYYAMGWYRQAPGKERELVAAINSTGGSRTYYADSVKGRFTISRDNAKNTVYLRMNCLKPEDTAVYYCAADYRVVWRAYDYWGQGTQVTVSS | low polyreactivity
QVQLVESGGGLVQAGGSLRLSCAASGRTFFVYAMGWYRQAPGKERELVAAISRGGRTYYADSVKGRFTISRDNAKNTVYLQMNSLKPEDTAVYYCAAESWYQQGDYWGQGTQVTVSS | low polyreactivity
QVQLVESGGGLVQAGGSLRLSCAASGNTFATYAMGWYRQAPGKERELVAAITWSGGSTYYADSVKGRFTISRDNAKNNVYLQMNSLKPEDTAVYYCAADYLYYAIPAYYWDTGYDYWGQGTQVTVSS | low polyreactivity
QGQLVETGGGLVQAGGSLRLSCDASGSIFYSNRGSYRQAPGKESEFVSAISGSGVRTYYADSLKGRFTISRDNAKNTVYLQMNSLKPEDNEVYYCNAGRRQDYRYNYWGQGTQVTVSS | high polyreactivity
QVQLVESGGGIVQAGGSLRLICAASGFTFGEYAMGRYRQAPGKERELVAAISRGTSTYYADSVKGRFTISRDNAKTTVYLQMNSLKPEDTAVYYCAADWGGLWFWYEYWGQGTQVTVSS | low polyreactivity
QVQLVESGGGLVQAGGSLRLSCAASGFIFGGYAMGWYRQAPGKERELVAAISRSGGSTYYADSVKGRFTISRDNAKNTVDLQINSLKPEDTAVYYCYAVTRRQGFNYWGQGTQVTVSS | high polyreactivity
QVQLVESGGGLVQAGGSLRLSCAASGRTFYPYAMGWYRQAPGKERELVAAISWNGGRTYYADSVKGRFTISRDNAKNTVYLQMTSLKPEDTAVYYCAADTAYYGFDYWGQGTQVTVSS | low polyreactivity
QVQLVESGGGLVQAGGSLRLSCAASGFTFAVYAMGWYRQAPGKERELVAAINRGGGSTYYADSVKGRFTISRDNAKNTVYLQMNSLKPEDTAVYYCNKRYRVWFDYWGQGTQVTLSS | high polyreactivity
QVQHVESGGGLVQAGGSLRLSCAASGRTIIKYAMGWYRQAPGKERELVAAISRSAGSTYYADSVKGRFTISRDNAKNTVYLQMNSLKPEDTAVYYCNAVTSSYLRFDYWGQGTQVTVSS | high polyreactivity
QVQLVESGGGLVQAGGSLRLSCAASGSTFGGYAMGWYRQAPGKERELVATITGGGSTNYADSVKGRFTISRDNAKNTVYLQMNSLKPEDTAVYYCAATEKYQYKVYYDPVGAYDYWGQGTQVTVST | low polyreactivity
QVQLVESGGGLVQAGGSLRLSCAASRLTFSYYAMGWYRQAPGKERELVAAISERGGSTYYADSVKGRFTISRDNAKNTVYLQMNSLKPEDTAVYYCAADFVYGTRDDSWGQGTQVTVSS | high polyreactivity
QVQLLESGGGLVQAGGSLRLRCAASGSIFISYAMGWYRQAPGKERELVAAISIRGTRTYYADSVKGRFTISRDNAKNTVYLHMNCLKPEDTAVYYCAADASYTEGMDYWGQGTQGTVSS | high polyreactivity
QVQLVESGGGLVQAGVSLRLSCAASGRIFLWYAMGWYRQAPGKERELVAVIRGRGDSTSYADSVKGRFTISRDNAKNTVYLQMNSLKPEDTAVYYCADVGRYDYNDWGQGTQVTVSS | low polyreactivity
QVQLVESGGGLVQAGGSLRLSCAASGFTFRNYAMGWYRQAPGKERELVAAISKRGGNTYYADSVKGRFTISRDNAKNTVYLQMNSLKPEDTAVYYCAAQRYTGQGSGYGYWGQGTQVTVSS | high polyreactivity
QVKLVESGGGLVQAGGSLRLSCAASGSTFPTNAMVCYRQAPGKERELVAGITEGGSSTYYADSVKGRFTISRDNAKNTVYLQMNSLKPEVTAVYYCAADVLWYGPFWVRQDDYWGQGTQVTVSS | high polyreactivity
QVQLVESGGGLVQAAGSLRLICAASGSTFPANAMGWYRQEPGKERELVASITKSGGDTYYADSVKGRFTISRDNAKNSVYVQMNSLKPEDTAVYDCAKDYVNQYGVYKVWANNYNYWGQGTQVTVSS | low polyreactivity
QVQLVESGGGLVQAGGSLRLSCGASGRTFRRNAMGRYRQAPGKERELVAAIRWSSGSTYYADSVKGRFTISRDNAKNTVYLQMNSLKPEDTAVYYCAKRQWGGRESFDYWGQGTQVTVSS | low polyreactivity
QVQLQESGGGLVQEGGSLRLSCASSGNISPPADMGWYRQAPGKERELVASMGTGGTTNYADSVKGRFTISRDNAKNTVYLQMNSLKPDDTAVYYCAAVRYEYNPYDYWGQGTQVTVSS | low polyreactivity
QVQHVESGGGVVQAGGSLRLSCAASVRTFRYYDMGWYRQAPGTERELVAAITSRGGSSYYADSVKGRFTISRDNAKYTVYLQMNSLKPEDTAVYYCNAYPVQIFYLGNRQYNYWGQGTQVTVSS | high polyreactivity
QVQLEESGGGLVQAGGSLRLSCAASGRIFRPNAMGWYRQAPGKERELVAAISSGGSTYYADSVKGRFTISRDNAKNTVYLQMNSLKPEDTAVYYCAARSRGYDIRYGYWGQGTQVTVSS | high polyreactivity
